Test system: MS2 coat protein
Assay: apparent KD of MS2 coat protein; designed switch direction (-1 OFF switch, 1 ON switch): 1; higher = weaker reporter binding
Summary of the method: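 Designed RNA switches with common flanks were transcribed on Illumina chips by stalled E. coli RNA polymerase and titrated with SNAP-549-labelled MS2 coat protein, from 0.7 or 1.5 nM doubling to 3 µM, in Tris-HCl pH 7.5 buffer with KCl, MgCl2, BSA, DTT, tRNA and Tween-20. Steps lasted 0.8–1.5 h (lowest) to 10–20 min (highest). Titrations ran without input, with 200 uM small-molecule ligand, or with an oligonucleotide input. Normalised cluster fluorescence was curve-fitted, and apparent KD is the per-design median over clusters.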

[1] = input ligand: microRNA oligo, concentration not stated
[2] = Eterna round: R95, input ligand: FMN 200 uM
[3] = Eterna round: R95, input ligand: microRNA oligo, concentration not stated
[4] = Eterna round: R95, input ligand: none

Sequence	apparent KD of MS2 coat protein (input ligand: FMN 200 uM) [nM]	apparent KD of MS2 coat protein [1] [nM]	apparent KD of MS2 coat protein (input ligand: none) [nM]	apparent KD of MS2 coat protein [2] [nM]	apparent KD of MS2 coat protein [3] [nM]	apparent KD of MS2 coat protein [4] [nM]
AAAGAAAACGCAGGAUAUACCCGGGAAACCGAGGUAGAAGGGUGAACCAAAACAAAACUAAAUAACAUGAGGAUCACCCAUGUC [Biarzara] (Eterna round: R96, puzzle: Same State NG 1)	162	12.7	132			
AUUUAACAAGCUUUUUGCUCGUCUUAUAAACAUGAGGAUCACCCAUGUAAUAGCGUGAGAGUAAAUAAUUUAAUUAU [JMF 99] (puzzle: Sensor for hsa-mir-208a)				13.7	48.6	10.8
UGGUACAUGGGAGGAUAUGGAGUGAUGACAUGAGGAUCACCCAUGUUAUAUAUGCCGAGAGGCAACUAGAAGGCCCAUGUACCU [JL SSNG1 3.97] (Eterna round: R96, puzzle: Same State NG 2)	19.4	121	137			
UUUAGUUGCGCGCAGGAUAUGUAUUAAUAUACAUGAGGAUCACCCAUGUGAGACCAAAUAGGUCUACAGAAGGGCGAAUCGCGAC [Laonerce - 29] (puzzle: Same State 2)				29.4	234	715
AUAAGUUUGAUGCUCGUCCCUCCGUACAGACAUGAGGAUCACCCAUGUAGUCGGGAAGUAGCCCGGCCAGUAUGGCC [Biraza] (puzzle: Sensor for hsa-mir-208a)				15.9	12.6	15
CUGAGAAGUCAAGGAUAUCACGUCGAUUAGACGUGAGAAGGUGAUCAUUACAUGAGGAUCACCCAUGUGUUACAUGGAGCUCAG [Brourd's SSNG1/1-A2 mod 6] (Eterna round: R96, puzzle: Same State NG 1)	703	124	938			
UUGCGCUGUCGAGAGGAUAUGCGGUGUUGGACAUGAGGAUCACCCAUGUUAGCGAUAGCUUUACGGUAGAAGGCUCUUCAGCUGC [salish99_ss2_r3_097] (puzzle: Same State 2)					99	
AGCUAUCGAAAACGAUAGCAAGAGCAUGUACAUGAGGAUCACCCAUGUCAUGUACAAGCUUUUUGCUCGUCUUAAAA [Zipper 23 - 2] (puzzle: Sensor for hsa-mir-208a)				330	17	490
CUUUAUCACUAUACAUGAGGAUCACCCAUGUUAUCAUCAUGAGAGGAUAUCGUAAUAGGAUUUUUCGAGAAGGCUCUAAAGUAU [JR_SSNG3_Sub078] (Eterna round: R96, puzzle: Same State NG 3)	52.1	167	142			
CUGAGAAGUCAAGGAUAUCACGUCGAUUAGACGUGAGAAGGUGAUCAGUACAUGAGGAUCACCCAUGUGUUACAUGGAACUCAG [Brourd's SSNG1/1-A2 mod 8] (Eterna round: R96, puzzle: Same State NG 1)	1660	367	1110			
AGCCGAGACACAGGAUAUACAUGUUUACAUGAGGAUCACCCAUGUAGCAACACGUGGUAGUGAUUGUAGAAGGGUGCUCGGCGC [Omei SS(NG)2 Cv12] (Eterna round: R96, puzzle: Same State NG 2)	15.8	12.6	23.3			
AGGCUCAGACGAGGAUAUACGUGGUCACAUGAGGAUCACCCAUGUCUCGAGCUUCGGCUCGAGGCGUAGAAGGCGUCUGAGCCA [SSNG2/6-A1] (Eterna round: R96, puzzle: Same State NG 2)	152	201	268			
AGCAAUCUAUCUCAGGAUAUCAUGUCAAAGACAUGAGGAUCACCCAUGUACCAGGAAACUGGUUAUGAGAAGGGAGAUAGAUUGA [Mat - Same State 2 - Mod - D29] (puzzle: Same State 2)				154	52.2	177
GUCGGGCAAGCUUUUUUCUCGUAGUGUAAACAUGAGGAUCACCCAUGUGCUCGCCCUGGAUCUUUGGAUCGCAGAAA [Isxevevere] (puzzle: Sensor for hsa-mir-208a)				57.5	34.9	64.5
ACAUGAGACGUAGGAUAUAUUGUACCUACAUGUGACAUGAGGAUCACCCAUGUGGUAAGUAUGACAUAGAAGGACGAGAUAUGU [Equivalance 94 - Jieux - Same State NG 2] (Eterna round: R96, puzzle: Same State NG 2)	48.6	49.7	64.3			
UGUCCAGCCUGAGCUGGACAAAAGCAUGUACAUGAGGAUCACCCAUGUUCAUGUACAAGCUUUUUGCUCGUCUUAUC [salish99_208a_r3_057] (puzzle: Sensor for hsa-mir-208a)				401	13.2	526
UAUAAACAUGAGGAUCACCCAUGUAAUAAUAUGGGAGGAUAUCAGAAUUUAUUUAUUUAAUGAGAAGGCCUAAUAU [Mat - Same State 1 - Mod of Eli - D67] (puzzle: Same State 1)				34.5	210	562
CUGAGAUGUCAAGGAUAUGCUACCGUUUCGGUAGCAGAAGGUGAUCACAUGAGGAUCACCCAUGUAUGCAUGCGUGAGCGUGCU [JL SSNG1 3.59] (Eterna round: R96, puzzle: Same State NG 1)	234	36.9	62			
AACAAUUUAUCUGAGGAUAUCAUGAAAUAAACAUGAGGAUCACCCAUGUGCAGGAAAACUGCAUAUGAGAAGGCAGAUAGAUUGA [salish99_ss2_r3_023] (puzzle: Same State 2)				53.5	821	1890
GUUACAUGAGGAUCACCCAUGUAUGUGUGGGAGUAAGUGUCUUAGGAUAUCUAUGAUUUAACUUAAGAGAAGGAAGAUUGUUGU [JMF's solution 81] (Eterna round: R96, puzzle: Same State NG 3)	123	72.9	98.6			
GGUCCAGCCUGAGCUGGACAAAAGUAUGUACAUGAGGAUCACCCAUGUCAUGUACAAGCUUUUUGCUCGUCUUAAAA [JL mod - D87 - 9] (puzzle: Sensor for hsa-mir-208a)				430	22.4	486
UGGCUGGUGCUAGGAUAUACAUGAGGAAUCCUCGUAGAAGGAGCACGACAUGAGGAUCACCCAUGUAGCCGUCCGUAGACGGCU [salish99_SSNG1_r04_007] (Eterna round: R96, puzzle: Same State NG 1)	284	156	112			
GAGAGACAUGAGGAUCACCCAUGUAGAAUAGAACAAGGAUAUGUGGAAGGCGGAGGAGAGACAGAAGGUGUAGGAG [JR_SS1_Sub055] (puzzle: Same State 1)					64	
UCGAGCGUACUUGCAGACAUGAGGAUCACCCAUGUAAAUGGGAAGGAUAUGGUACCGUUUCGGUACCAGAAGGUCCUAAGUGCU [salish99_SSNG3_r04_304] (Eterna round: R96, puzzle: Same State NG 3)	166	862	1440			
GUUACAUGAGGAUCACCCAUGUAUGUGUGGGAGUAAGUGUCUUAGGAUAUCUAUUAUUGAAAUUAAGAGAAGGAAGAUUGUUGU [JMF's solution 19] (Eterna round: R96, puzzle: Same State NG 3)		98.6				
GUGGUCAGACAUGAGGAUCACCCAUGUGGAAUAAAUAAGGAGAAGGAUAUGCAAUAUAGGAUAUAGCAGAAGGUCUGGUUGGUG (Eterna round: R96, puzzle: Same State NG 3)		58.5				
AUACAUGAGGAUCACCCAUGUAAUUAAUUAACUUGUAAGAUCAAGGAUAUCAGCUCGAAUAGAGCUGAGAAGGUGAUCACAUGU [SSNG3/21-C1] (Eterna round: R96, puzzle: Same State NG 3)		105				
GGAGCCGGCACUGAGGAUAUUCAUAUUAAAACAUGAGGAUCACCCAUGUAGGCCAGAAGGCCUUGGGAGAAGGCGGAUCGGCUCG [Xeonanis - 14] (puzzle: Same State 2)				78.7	181	1070
CGUAGGUAGCUGGAGGAUAUCUGAGUGGUAACAUGAGGAUCACCCAUGUGAUGUGAGGAACAUGAGGAGAAGGCUAGCUGCCUGC [JL-ss2-3.13 JL mod] (puzzle: Same State 2)				21.4	42.2	43.5

— the supplement of paper PMC9170038
